Experimental data: patent US20140017242A1, “ANTI-BRADYKININ B2 RECEPTOR (BKB2R) MONOCLONAL ANTIBODY” (Diamedica, Inc., priority 2010, published 2014)

Target: T1, human BKB2R-derived epitope peptide, SE ID NO:73 (Homo sapiens, UniProt P30411)
T1 construct: purchased Biosyn, Lewisville, Tex
Test: ForteBio Octet binding kinetics to the BKB2R epitope peptide
Method: Proteins corresponding to all combinations of humanized or chimeric (5F12G1 VH and VL on human IgG2 backbone) antibodies were tested for binding to the human BKB2R-derived epitope peptide, SE ID NO:73.
A ForteBio (Menlo Park, Calif., USA) Octet® platform was used to analyze the binding affinities and binding characteristics of the humanized monoclonal antibodies to the peptide epitope (SEQ ID NO:73) and compared to the original mouse monoclonal 5F12G1. This platform employed label-free technology for measuring biomolecular interactions by optical analysis of the interference pattern of white light reflected from two surfaces: a layer of immobilized protein on the biosensor tip, and an internal reference layer. Any change in the number of molecules bound to the biosensor tip caused a shift in the interference pattern that was measured in real-time. Binding specificity, and rates of association and dissociation were monitored.
For the Octet study, antibodies were analyzed by kinetic titration of the antibodies. Antibodies were prepared in kinetic buffer (0.001 M phosphate buffered saline (NaCl 0.0138 M; KCl-0.00027 M); pH 7.4, at 25° C., 0.1 mg/ml BSA, 0.002% Tween and 0.005% Sodium Azide) followed by 1:2 serial dilutions.
Sensor Prep: Streptavidin biosensors (FortéBio Inc, Menlo Park, Calif.) were coated by incubation in a solution containing a peptide ([…]-PEG-biotin) (Biosyn, Lewisville, Tex.) at 50 μg/ml (300 seconds/1000 rpm shaking). 96 well half-volume plates were used for testing. 90 μl of sample was plated per well. Sensors were allowed to equilibrate to baseline in kinetic buffer (60 seconds/1000 rpm). The sensors were then placed into the various antibody dilutions to allow binding (association) to the probe for 500 seconds/1000 rpm, and measurements were taken. The sensors were then moved into kinetic buffer without antibody for dissociation (500 seconds/1000 rpm), and measurements were taken. Octet system software calculated kinetic constants for on rate/off rate/affinity.
[…] […] Each concentration was tested twice. The HC and LC represented the mouse original 5F12G1 VH and VL sequences.

Row | Molecule | kdis (Conc. 250 nM) | kon (Conc. 250 nM) | kdis (Conc. 500 nM) | kon (Conc. 500 nM)
1 | L2/HC: humanized light chain L2 (SEQ ID NO:9) with HC, the mouse original 5F12G1 VH (antibody, left off: a dimerising Fc or GST) heavy: EVKLEESGGGLVQPGGSMKLSCVVSGFTFSDYWMSWVRHSPEMGLEWVAEIRLKSDNYATHYAESVKGRFTISRDDSKSRLYLQINSLRGEDTGIYYCTRDYYAMEYWGQGTSVTVSS light: DIVMTQSPLSLPVTPGEPASISCRSSQTIVHSNGKTYLEWYLQKPGQSPQLLIYKVSNRFSGVPDRFSGSGSGTEFTLKISRVEAEDVGVYYCFQASHVPYTFGQGTKLEIKRTVAAPSVFIFPPSDEQLKSGTASVVCLLNNFYPREAKVQWKVDNALQSGNSQESVTEQDSKDSTYSLSSTLTLSKADYEKHKVYACEVTHQGLSSPVTKSFNRGEC | 0.732 s⁻¹ | 2.17e+06 M⁻¹ s⁻¹ | 0.655 s⁻¹ | 145000 M⁻¹ s⁻¹
2 | L2/H1: humanized anti-BKB2R mAb, light chain L2 (SEQ ID NO:9), heavy chain H1 (SEQ ID NO:3) (antibody, V domains shown, Humanized H1 Heavy Chain Variable Region VH; Humanized L2 Light Chain Variable Region VL) VH: EVQLVESGGGLVQPGGSLRLSCAASGFTFSDYWMSWVRQAPGKGLEWVAEIRLKSDNYATHYAESVKGRFTISRDNAKNSLYLQMNSLRAEDTAVYYCTRDYYAMEYWGQGTLVTVSS VL: DIVMTQSPLSLPVTPGEPASISCRSSQTIVHSNGKTYLEWYLQKPGQSPQLLIYKVSNRFSGVPDRFSGSGSGTEFTLKISRVEAEDVGVYYCFQASHVPYTFGQGTKLEIK | 0.00438 s⁻¹ | 216000 M⁻¹ s⁻¹ | 0.00507 s⁻¹ | 1.21e+06 M⁻¹ s⁻¹
3 | L2/H2: humanized anti-BKB2R mAb, light chain L2 (SEQ ID NO:9), heavy chain H2 (SEQ ID NO:4) (antibody, V domains shown, Humanized H2 Heavy Chain Variable Region VH; Humanized L2 Light Chain Variable Region VL) VH: EVQLVESGGGLVQPGGSLRLSCVASGFTFSDYWMSWVRQAPGKGLEWVAEIRLKSDNYATHYAESVKGRFTISRDDAKNSLYLQMNSLRAEDTAVYYCTRDYYAMEYWGQGTLVTVSS VL: DIVMTQSPLSLPVTPGEPASISCRSSQTIVHSNGKTYLEWYLQKPGQSPQLLIYKVSNRFSGVPDRFSGSGSGTEFTLKISRVEAEDVGVYYCFQASHVPYTFGQGTKLEIK | 0.0359 s⁻¹ | 1.76e+06 M⁻¹ s⁻¹ | 0.0223 s⁻¹ | 992000 M⁻¹ s⁻¹
4 | H37/L39: humanized anti-BKB2R mAb, heavy chain H37 (SEQ ID NO:5), light chain L39 (SEQ ID NO:12) (antibody, V domains shown, Humanized H37 Heavy Chain Variable Region VH; Humanized L39 Light Chain Region VL) VH: EVQLVESGGGLVQPGGSLRLSCAASGFTFSDYWMDWVRQAPGKGLEWVGEIRLKSDNYATHYAASVKGRFTISRDDSKNSLYLQMNSLKTEDTAVYYCTRDYYAMEYWGQGTTVTVSS VL: DVVMTQTPLSLSVTPGQPASISCKSSQTIVHSNGKTYLEWYLQKPGQSPQLLIYKVSNRFSGVPDRFSGSGSGTDFTLKISRVEAEDVGVYYCFQASHVPYTFGQGTKLEIK |  |  | 1.98 s⁻¹ | 1.11e+06 M⁻¹ s⁻¹
5 | H37/L38: humanized anti-BKB2R mAb, heavy chain H37 (SEQ ID NO:5), light chain L38 (SEQ ID NO:11) (antibody, V domains shown, Humanized H37 Heavy Chain Variable Region VH; Humanized L38 Light Chain Variable Region VL) VH: EVQLVESGGGLVQPGGSLRLSCAASGFTFSDYWMDWVRQAPGKGLEWVGEIRLKSDNYATHYAASVKGRFTISRDDSKNSLYLQMNSLKTEDTAVYYCTRDYYAMEYWGQGTTVTVSS VL: DIVMTQTPLSLPVTSGEPASISCRSSQTIVHSNGKTYLDWYLQKPGQSPQLLIYKVSNRASGVPDRFSGSGSGTDFTLKISRVEAEDVGVYYCFQASHVPYTFGGGTKVEIK |  |  | 2.08 s⁻¹ | 9.47e+06 M⁻¹ s⁻¹
6 | H39/L38: humanized anti-BKB2R mAb, heavy chain H39 (SEQ ID NO:7), light chain L38 (SEQ ID NO:11) (antibody, V domains shown, Humanized H39 Heavy Chain Variable Region VH; Humanized L38 Light Chain Variable Region VL) VH: EVKLVESGGGLVQPGGSLRLSCAVSGFTFSDYWMDWVRQAPGKGLEWVAEIRLKSDNYATHYAASVKGRFTISRDDSKSRLYLQMNSLKTEDTAVYYCTRDYYAMEYWGQGTTVTVSS VL: DIVMTQTPLSLPVTSGEPASISCRSSQTIVHSNGKTYLDWYLQKPGQSPQLLIYKVSNRASGVPDRFSGSGSGTDFTLKISRVEAEDVGVYYCFQASHVPYTFGGGTKVEIK |  |  | 4.9 s⁻¹ | 6.44e+06 M⁻¹ s⁻¹
7 | H38/L37: humanized anti-BKB2R mAb, heavy chain H38 (SEQ ID NO:6), light chain L37 (SEQ ID NO:10) (antibody, V domains shown, Humanized H38 Heavy Chain Variable Region VH; Humanized L37 Light Chain Variable Region VL) VH: EVQLLESGGGLVQPGGSLKLSCAVSGFTFSDYWMSWVRQAPGKGLEWVSEIRLKSDNYATHYADSVKGRFTISRDDSKNTLYLQMNSLRAEDTAVYYCTRDYYAMEYWGQGTLVTVSS VL: DIVMTQTPLSLSVTPGQPASISCKSSQTIVHSNGKTYLYWYLQKPGQSPQLLIYKVSSRFSGVPDRFSGSGSGTDFTLKISRVEAEDVGVYYCFQASHVPYTFGQGTKLEIK |  |  | 29.4 s⁻¹ | 9.44e+06 M⁻¹ s⁻¹
8 | L1/H2: humanized anti-BKB2R mAb, light chain L1 (SEQ ID NO:8), heavy chain H2 (SEQ ID NO:4) (antibody, V domains shown, Humanized H2 Heavy Chain Variable Region VH; Humanized L1 Light Chain Variable Region VL) VH: EVQLVESGGGLVQPGGSLRLSCVASGFTFSDYWMSWVRQAPGKGLEWVAEIRLKSDNYATHYAESVKGRFTISRDDAKNSLYLQMNSLRAEDTAVYYCTRDYYAMEYWGQGTLVTVSS VL: DIVMTQSPLSLPVTPGEPASISCRSSQTIVHSNGKTYLEWYLQKPGQSPQLLIYKVSNRFSGVPDRFSGSGSGTDFTLKISRVEAEDVGVYYCFQASHVPYTFGQGTKLEIK | 0.719 s⁻¹ | 350000 M⁻¹ s⁻¹ | 0.976 s⁻¹ | 2.43e+06 M⁻¹ s⁻¹
9 | H37/L37: humanized anti-BKB2R mAb, heavy chain H37 (SEQ ID NO:5), light chain L37 (SEQ ID NO:10) (antibody, V domains shown, Humanized H37 Heavy Chain Variable Region VH; Humanized L37 Light Chain Variable Region VL) VH: EVQLVESGGGLVQPGGSLRLSCAASGFTFSDYWMDWVRQAPGKGLEWVGEIRLKSDNYATHYAASVKGRFTISRDDSKNSLYLQMNSLKTEDTAVYYCTRDYYAMEYWGQGTTVTVSS VL: DIVMTQTPLSLSVTPGQPASISCKSSQTIVHSNGKTYLYWYLQKPGQSPQLLIYKVSSRFSGVPDRFSGSGSGTDFTLKISRVEAEDVGVYYCFQASHVPYTFGQGTKLEIK |  |  | 1.18 s⁻¹ | 1.55e+06 M⁻¹ s⁻¹
10 | H39/L39: humanized anti-BKB2R mAb, heavy chain H39 (SEQ ID NO:7), light chain L39 (SEQ ID NO:12) (antibody, V domains shown, Humanized H39 Heavy Chain Variable Region VH; Humanized L39 Light Chain Region VL) VH: EVKLVESGGGLVQPGGSLRLSCAVSGFTFSDYWMDWVRQAPGKGLEWVAEIRLKSDNYATHYAASVKGRFTISRDDSKSRLYLQMNSLKTEDTAVYYCTRDYYAMEYWGQGTTVTVSS VL: DVVMTQTPLSLSVTPGQPASISCKSSQTIVHSNGKTYLEWYLQKPGQSPQLLIYKVSNRFSGVPDRFSGSGSGTDFTLKISRVEAEDVGVYYCFQASHVPYTFGQGTKLEIK |  |  | 1.26 s⁻¹ | 729000 M⁻¹ s⁻¹
